# Reference: patent US10413588B2, “Probiotic function of human intelectin” (Wisconsin Alumni Research Foundation, priority 2015, dated 2019)
# B1: hIntL-1: human lectin intelectin-1, accession no. Q8WWA0; recombinant disulfide-linked trimer from HEK 293T cells, used also N-terminally Strep-tagged (Strep-hIntL-1) (protein, listed as Homo sapiens)
# chain: MNQLSFLLFLIATTRGWSTDEANTYFKEWTCSSSPSLPRSCKEIKDECPSAFDGLYFLRTENGVIYQTFCDMTSGGGGWTLVASVHENDMRGKCTVGDRWSSQQGSKAVYPEGDGNWANYNTFGSAEAATSDDYKNPGYYDIQAKDLGIWHVPNKSPMQHWRNSSLLRYRTDTGFLQTLGHNLFGIYQKYPVKYGEGKCWTDNGPVIPVVYDFGDAQKTASYYSPYGQREFTAGFVQFRVFNNERAANALCAGMRVTGCNTEHHCIGGGGYFPEASPQQCGDFSGFDWSGYGTHVGYSSSREITEAAVLLFYR
# Assay: Microbial Glycan Microarray (MGMv2)
# Type: binding, E. coli
# Conditions: Strep-hIntL-1 50 μg/mL; terminal α-Galf residue
# Method: Strep-hIntL-1 was used to interrogate the Microbial Glycan Microarray version 2 (MGMv2). Construction of the MGMv2 is previously described. Briefly, bacterial polysaccharide samples were dissolved and diluted to 0.5 mg/mL in printing buffer (150 mM sodium phosphate buffer (8.4)+0.005% Tween-20). Samples were immobilized on NETS-activated glass slides (SlideH, Schott/Nexterion) using a MicroGrid II (Digilab) contact microarray printer equipped with SMP-4B printing pins (Telechem). Six replicates of each bacterial glycan sample were printed. Covalent coupling of glycans to the surface was facilitated by incubation for 1 hour postprint at 100% relative humidity. The remaining reactive NHS-moieties were quenched using a blocking solution (50 mM ethanolamine in 50 mM borate buffer (9.2)). Blocked slides were stored at −20° C. until assays were performed. […] The Strep-Tag® II on bound hIntL-1 was detected using StrepMAB-Classic Chromeo647 (10 μg/mL, IBA GmbH Lifesciences) diluted in binding buffer applied directly to the array surface and allowed to incubate for 1 hour. […] Signal data was calculated as the average of 4 values after removing the high and low values of the 6 replicates. Data were plotted using Excel (Microsoft) as average Relative Fluorescence Units (RFU) versus print identification number. […]
molecule,measurement,value
B1,signal on microbial glycan array,49 RFU
